Laboratory results taken from patent US9163330B2, “Bifunctional stapled polypeptides and uses thereof” (President and Fellows of Harvard College, priority 2009, dated 2015).
Positions of bridges follow the written chain, without caps; N, C: chain ends. Non-standard residues stand in square brackets, D forms with d. No end group written: not given here. S5 = C=CCCC[C@](C)(N)C(=O)O; βAla = NCCC(=O)O

Test system: Hela cells
Assay: Confocal microscopy of Hela cells treated with FITC-conjugated SID-series peptides
Assay type: cell-based
Conditions: FITC-conjugated peptide, 10 μM, 6 hours, 37° C.
Description: HeLa cells were grown on chamber slides overnight. 10 mM FITC-SID peptides in DMSO stock solutions were diluted in cell media to a final concentration of 10 μM, along with a 10 μM DMSO control. Cells were incubated in peptide/vehicle solutions at 37° C. for 6 hours, then washed thoroughly with media and PBS, and fixed with 4% paraformaldehyde. Slides were stained with Vectashield™ Hardset with DAPI. Images were taken with a Zeiss 710 confocal microscope.

| Substance | cellular penetration |
| --- | --- |
| βAla-VRRRIQMLLEAANK*ERR*R ([βAla]VRRRIQMLLEAANK[S5]ERR[S5]R; staple 16-20) [SID5] | robust cellular penetration |
| βAla-VRRRI*MLL*AANYLER ([βAla]VRRRI[S5]MLL[S5]AANYLER; staple 7-11) [SID2] | robust cellular penetration |
